According to PMC8519427, “High affinity associations with α-SNAP enable calcium entry via Orai1 channels” (PLoS ONE, 2021):

Target: T1, human α-SNAP with an Avitag and a C-terminal 6xHis tag (human, UniProt P54920 1-295, biotin (in vitro biotinylated using BirA ligase; Avitag))
T1 construct: alpha-soluble NSF attachment protein (α-SNAP), human, amplified from HEK 293 cDNA; The methods describe a single preparation; The biotinylated protein was captured on streptavidin tips for BLI; also called biotinylated α-SNAP; Avi-Tagged human α-SNAP; source: E. coli LEMO21(DE3), pET28b, purified; in vitro biotinylated with BirA ligase; not shown: Avitag, C-terminal, kept
T1 sequence (looked up): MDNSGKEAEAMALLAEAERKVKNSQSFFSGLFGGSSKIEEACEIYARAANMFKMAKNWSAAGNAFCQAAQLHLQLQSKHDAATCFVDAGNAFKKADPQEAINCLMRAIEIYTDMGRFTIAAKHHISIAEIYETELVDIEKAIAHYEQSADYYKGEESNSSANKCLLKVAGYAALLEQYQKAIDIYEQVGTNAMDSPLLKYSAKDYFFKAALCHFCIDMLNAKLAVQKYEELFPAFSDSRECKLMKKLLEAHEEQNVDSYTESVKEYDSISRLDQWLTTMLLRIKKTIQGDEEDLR
Assay: pull-down; MBP- or GST-tagged Stim1 or Orai1 fragments immobilised on amylose or glutathione resin, incubated with 20–50 nM α-SNAP in Ringer's buffer with 0.1% NP-40 and 2 mM imidazole, 1 hr at 4°C; washed thrice; Western blot for α-SNAP
Conditions: both partners purified

binding result: binds
B1: MBP-Stim1 408–442 (CC3 domain) (domain or fragment, human, UniProt Q13586 408-442, looked up)
chain: KILTAKQALSEVTAALRERLHRWQQIEILCGFQIV
notes: Cloned into pMAL-c5X in frame with MBP; also called Stim1-CC3; source: E. coli LEMO21(DE3), purified by immobilizing on amylose resin
